To fix the notation:
B1: Azoarcus group I ribozyme (parent)
chain: GUGCCUUGCGCCGGGAAACCACGCAAGGGAUGGUGUCAAAUUCGGCGAAACCUAAGCGCCCGCCCGGGCGUAUGGCAACGCCGAGCCAAGCUUCGGCGCCUGCGCCGAUGAAGGUGUAGAGACUAGACGGCACCCACCUAAGGCAAACGCUAUGGUGAAGGCAUAGUCCAGGGAGUGGCGAAAGUCACACAAACCGG

In the data set the parent is B1. Briefly: reverse-splicing fitness (ratio to wild type); higher = more active; in vitro selection; Mg2+ level not given. The procedure, abridged: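 An in vitro group I ribozyme library with randomized positions was T7-transcribed and gel-purified. In triplicate, 10 pmol RNA in EPPS pH 7.5 was reacted with 50 pmoles of a 30-nt RNA substrate for 1 h at 37 °C across several added MgCl2 levels (1–48 mM), then stopped with EDTA. Products were reverse transcribed from a substrate-complementary primer, PCR-amplified and sequenced (HiSeq 4000). Fitness is a variant's read proportion after selection over that before, normalised to wild type.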
Regarding C82A A111G A120G A145U C150G U176G, the reverse-splicing fitness was 0.00378.
Turning to C82A A111G A120G A145U C150G U176C, the reverse-splicing fitness came to 0.00837.
The figure for C82A A111G A120C C150A C169U U176C is 0.0133; for C82A A111G A120C C150A C169U U176G it is 0.00938.
The figure for C82A A111G A120C C150A C169U U176A is 0.0162; for C82A A111G A120C C150U C169U U176C it is 0.0125; for C82A A111G A120C C150U C169U U176G it is 0.00647.
For the variant C82A A111G A120C C150U C169U U176A, the reverse-splicing fitness was found to be 0.014.
The figure for C82A A111G A120G C150U C169G U176A is 0.0166; for C82A A111G A120G C150U C169G U176G it is 0.0061.
C82A A111G A120G C150U C169G U176C: the reverse-splicing fitness came to 0.0192.
On to C82A A111G A120U A145C C150G, for which the reverse-splicing fitness worked out at 0.00637.
The figure for C82A A111G A120U A145C C150A is 0.00468.
As for C82A A111G A120G A145G C169U U176C, the figure is 0.0173; as for C82A A111G A120G A145G C169U U176A, 0.019.
The figure for C82A A111G A120G A145G C169U U176G is 0.00492; for C82A A111G A120G A145C U176G it is 0.00516.
Turning to C82A A111G A120G A145C U176A, the reverse-splicing fitness was found to be 0.0113.
As for C82A A111G A120G A145C U176C, the figure is 0.0105; as for C82A A111G A120G C150G C169G U176C, 0.00515.
Turning to C82A A111G A120G C150G C169G U176A, the reverse-splicing fitness turned out to be 0.00689.
Consider C82A A111G A120G C150G C169G U176G, for which the reverse-splicing fitness stood at 0.00489.
In the case of C82A A111G A120G C150G C169G, the reverse-splicing fitness was 0.00739.
On to C82A A111G A120G C150G C169U, for which the reverse-splicing fitness came out at 0.00856.
The figure for C82A A111G A120G C150G C169A is 0.00929; for C82A A111G A120C C150U C169G U176A it is 0.0173; for C82A A111G A120C C150U C169G U176C it is 0.0203.
Take C82A A111G A120C C150U C169G U176G: the reverse-splicing fitness amounted to 0.00643.
As for C82A A111G A120U A145C C150A U176A, the figure is 0.003.
The figure for C82A A111G A120U A145C C150A U176C is 0.00355.
Regarding C82A A111G A120U A145C C150A U176G, the reverse-splicing fitness came out at 0.00207.
The figure for C82A A111G A120G A145G C150G C169U U176A is 0.0118; for C82A A111G A120G A145G C150G C169U U176G it is 0.00793; for C82A A111G A120G A145G C150G C169U U176C it is 0.0133.
The figure for C82A A111G A120G A145C C169U is 0.0103; for C82A A111G A120G A145C C169G it is 0.0122; for C82A A111G A120G A145C C169A it is 0.00912.
The figure for C82A A111G A120U is 0.0351.
With C82A A111G A120G, the reverse-splicing fitness worked out at 0.0164.
The figure for C82A A111G A120G A145G is 0.0165; for C82A A111G A120G A145U it is 0.015; for C82A A111G A120G A145C it is 0.0136.
As for C82A A111G A120G A145C C150G C169U U176A, the figure is 0.0129.
As for C82A A111G A120G A145C C150G C169U U176C, the figure is 0.0141; as for C82A A111G A120G A145C C150G C169U U176G, 0.00529.
With C82A A111G A120C C150A U176C, the reverse-splicing fitness turned out to be 0.0223.
As for C82A A111G A120C C150A U176A, the figure is 0.0133; as for C82A A111G A120C C150A U176G, 0.0115; as for C82A A111G A120G A145G U176G, 0.00638.
The figure for C82A A111G A120G A145G U176A is 0.0128; for C82A A111G A120G A145G U176C it is 0.0205.
The figure for C82A A111G A120G A145G C150A is 0.00972; for C82A A111G A120G A145G C150G it is 0.00769; for C82A A111G A120G A145G C150U it is 0.0145.
C82A A111G A120G A145C C150A C169G U176G: the reverse-splicing fitness was 0.00565.
As for C82A A111G A120G A145C C150A C169G U176C, the figure is 0.0158.
As for C82A A111G A120G A145C C150A C169G U176A, the figure is 0.027; as for C82A A111G A120G C150U C169A U176G, 0.00549; as for C82A A111G A120G C150U C169A U176C, 0.0173.
As for C82A A111G A120G C150U C169A U176A, the figure is 0.0153; as for C82A A111G A120C C169G U176C, 0.0237; as for C82A A111G A120C C169G U176G, 0.00548.
For the variant C82A A111G A120C C169G U176A, the reverse-splicing fitness came out at 0.0206.
The figure for C82A A111G A120G C150A C169A U176C is 0.0184; for C82A A111G A120G C150A C169A U176A it is 0.0228.
As for C82A A111G A120G C150A C169A U176G, the figure is 0.00588; as for C82A A111G A120G A145G C169A U176A, 0.0226; as for C82A A111G A120G A145G C169A U176C, 0.0254.
For C82A A111G A120G A145G C169A U176G, the reverse-splicing fitness stood at 0.00461.
Consider C82A A111G A120U A145C C150A C169A U176G, for which the reverse-splicing fitness came to 0.00214.
As for C82A A111G A120U A145C C150A C169A U176A, the figure is 0.0022; as for C82A A111G A120U A145C C150A C169A U176C, 0.0024.
As for C82A A111G A120G A145G C150G U176A, the figure is 0.00684.
On to C82A A111G A120G A145G C150G U176C, for which the reverse-splicing fitness came out at 0.00999.
The figure for C82A A111G A120G A145G C150G U176G is 0.00568; for C82A A111G A120G A145U U176G it is 0.00583.
C82A A111G A120G A145U U176A: the reverse-splicing fitness is 0.0131.
The figure for C82A A111G A120G A145U U176C is 0.0167.
Regarding C82A A111G A120G A145C C150G C169G U176C, the reverse-splicing fitness amounted to 0.00788.
As for C82A A111G A120G A145C C150G C169G U176G, the reverse-splicing fitness amounted to 0.0049.
Consider C82A A111G A120G A145C C150G C169G U176A, for which the reverse-splicing fitness turned out to be 0.00955.
Take C82A A111G A120C C150G C169G U176A: the reverse-splicing fitness stood at 0.00731.
Turning to C82A A111G A120C C150G C169G U176C, the reverse-splicing fitness was found to be 0.00485.
The figure for C82A A111G A120C C150G C169G U176G is 0.00561.

(Values after the RNAGym collection of RNA variant scans (doi:10.1093/molbev/msab373).)
